Assay results taken from publication PMC12713080.

B1: HA‐TAK1 [human] / Flag‐TRAF2 [not stated] (parent)
chain 1: MSTASAASSSSSSSAGEMIEAPSQVLNFEEIDYKEIEVEEVVGRGAFGVVCKAKWRAKDVAIKQIESESERKAFIVELRQLSRVNHPNIVKLYGACLNPVCLVMEYAEGGSLYNVLHGAEPLPYYTAAHAMSWCLQCSQGVAYLHSMQPKALIHRDLKPPNLLLVAGGTVLKICDFGTACDIQTHMTNNKGSAAWMAPEVFEGSNYSEKCDVFSWGIILWEVITRRKPFDEIGGPAFRIMWAVHNGTRPPLIKNLPKPIESLMTRCWSKDPSQRPSMEEIVKIMTHLMRYFPGADEPLQYPCQYSDEGQSNSATSTGSFMDIASTNTSNKSDTNMEQVPATNDTIKRLESKLLKNQAKQQSESGRLSLGASRGSSVESLPPTSEGKRMSADMSEIEARIAATTAYSKPKRGHRKTASFGNILDVPEIVISGNGQPRRRSIQDLTVTGTEPGQVSSRSSSPSVRMITTSGPTSEKPTRSHPWTPDDSTDTNGSDNSIPMAYLTLDHQLQPLAPCPNSKESMAVFEQHCKMAQEYMKVQTEIALLLQRKQELVAELDQDEKDQQNTSRLVQEHKKLLDENKSLSTYYQQCKKQLEVIRSQQQKRQGTS
chain 2: MAAASVTPPGSLELLQPGFSKTLLGTKLEAKYLCSACRNVLRRPFQAQCGHRYCSFCLASILSSGPQNCAACVHEGIYEEGISILESSSAFPDNAARREVESLPAVCPSDGCTWKGTLKEYESCHEGRCPLMLTECPACKGLVRLGEKERHLEHECPERSLSCRHCRAPCCGADVKAHHEVCPKFPLTCDGCGKKKIPREKFQDHVKTCGKCRVPCRFHAIGCLETVEGEKQQEHEVQWLREHLAMLLSSVLEAKPLLGDQSHAGSELLQRCESLEKKTATFENIVCVLNREVERVAMTAEACSRQHRLDQDKIEALSSKVQQLERSIGLKDLAMADLEQKVLEMEASTYDGVFIWKISDFARKRQEAVAGRIPAIFSPAFYTSRYGYKMCLRIYLNGDGTGRGTHLSLFFVVMKGPNDALLRWPFNQKVTLMLLDQNNREHVIDAFRPDVTSSSFQRPVNDMNIASGCPLFCPVSKMEAKNSYVRDDAIFIKAIVDLTGL

Variants of: B1
Assay: co-immunoprecipitation (anti-HA beads), IB quantified
Details: with Flag‐TRAF2; HEK293T cells cotransfected; mean+/-SD, n = 3; read off a plot

response	Variant
0.25	chain 1 H154A M196A
